What is called Km is the substrate concentration at which the rate is half of its maximum.

The data set relates to CCCC(=O)Oc1ccc([N+](=O)[O-])cc1. Put plainly: purified protein. The conditions noted are these: 50 mM Tris-HCl pH 8, 10 μM enzyme, no α-CD.

EstG (Caulobacter vibrioides NA1000): the Km was found to be 11.2 mM.

For the origin of these results see publication PMC9877181.
